In article PMC3511584:

Assays:
[1] = molecular target: circularly permuted RoCBM21 (CP90) (Rhizopus oryzae); test: AUC; sedimentation velocity, no ligand, protein around 1.0 mg/ml, 40,000 rpm, 25°C, absorbance at 280 nm, SEDFIT
[2] = molecular target: circularly permuted RoCBM21 (CP90) (Rhizopus oryzae); test: AUC; data not shown: apoCP90 at pH 2.5, 3, 4, 5, 6, 7, 8, 9 and 10, no ligand

circularly permuted RoCBM21 (CP90) (domain or fragment)
stoichiometry N [1]: 2 | stoichiometry N [2]: 2
